# Experimental data reported in the supplement of paper PMC7125110.
# ± gives the standard error. For some assays here: Variants at the floor of the assay were thinned out.
# B1: glmS ribozyme (parent)
# chain: AUAAAAGCGCCAGAACUACAGAAAUGUAGUUGACGAGGAGGAGGUUUAUCGAAUUUUCGGCGGAUGCCUCCAAA
# What was measured:
# Settings in all cases: with glucosamine-6-phosphate
# glucosamine-6-phosphate [1] = variants of: B1; test: kcat; higher = faster cleavage; RNA array
# Outline: (§1)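 Tiles of sequenced MiSeq chips were imaged over ~14 h at 37 °C. On them, barcoded ribozyme variants had been transcribed in situ by E. coli RNA polymerase and were tracked via a hybridised Cy3 probe while glucosamine-6-phosphate (40 μM to 10 mM) in HEPES/KCl/Mg(OAc)2 buffer flowed in. Per-tile medians, normalised to baseline and to non-cleaving reference variants, were fit to one- or two-exponential decays for kobs, and weighted Michaelis–Menten fits gave kcat and KM.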
# glucosamine-6-phosphate [2] = variants of: B1; test: KM; higher = weaker cofactor use; RNA array
# Outline: as §1
# glucosamine-6-phosphate [3] = variants of: B1; test: self-cleavage kobs at 40 uM GlcN6P; higher = faster cleavage; RNA array
# Outline: as §1
# glucosamine-6-phosphate [4] = variants of: B1; test: self-cleavage kobs at 160 uM GlcN6P; higher = faster cleavage; RNA array
# Outline: as §1
# glucosamine-6-phosphate [5] = variants of: B1; test: self-cleavage kobs at 640 uM GlcN6P; higher = faster cleavage; RNA array
# Outline: as §1
# glucosamine-6-phosphate [6] = variants of: B1; test: self-cleavage kobs at 2500 uM GlcN6P; higher = faster cleavage; RNA array
# Outline: as §1
# glucosamine-6-phosphate [7] = variants of: B1; test: self-cleavage kobs at 10000 uM GlcN6P; higher = faster cleavage; RNA array
# Outline: as §1
Variant,kcat (glucosamine-6-phosphate [1]) [s⁻¹],KM (glucosamine-6-phosphate [2]) [µM],self-cleavage kobs at 40 uM GlcN6P (glucosamine-6-phosphate [3]) [s⁻¹],self-cleavage kobs at 160 uM GlcN6P (glucosamine-6-phosphate [4]) [s⁻¹],self-cleavage kobs at 640 uM GlcN6P (glucosamine-6-phosphate [5]) [s⁻¹],self-cleavage kobs at 2500 uM GlcN6P (glucosamine-6-phosphate [6]) [s⁻¹],self-cleavage kobs at 10000 uM GlcN6P (glucosamine-6-phosphate [7]) [s⁻¹]
U31C A39C,0.00127 ± 0.00014,2620 ± 500,3.17e-05 ± 7.1e-06,6.64e-05 ± 9.6e-06,0.000259 ± 2.4e-05,0.00058 ± 5.1e-05,0.00102 ± 6.7e-05
U45A U69G,6.38e-05 ± 2e-05,–,–,–,5.46e-05 ± 1.9e-05,0.000109 ± 3.2e-05,–
A53U G66C,0.000389 ± 9.5e-05,1980 ± 890,–,–,0.000103 ± 2.5e-05,0.000187 ± 4.6e-05,0.000387 ± 0.00011
A48G U54G,0.000141 ± 9.6e-06,761 ± 180,–,–,6.14e-05 ± 1.1e-05,0.000134 ± 2.5e-05,0.000127 ± 1.2e-05
A6U G66U,< 1e-05,1280 ± 630,–,–,–,–,–
G63U C67A,< 1e-05,–,–,< 1e-05,–,–,< 1e-05
A12U G44U U47G,1.54e-05 ± 2.4e-06,–,–,–,–,–,–
G62U C67A,< 1e-05,–,< 1e-05,–,–,–,< 1e-05
U54C G66U,0.0027 ± 0.00084,3380 ± 1600,6.62e-05 ± 1.2e-05,0.000108 ± 2.3e-05,0.000359 ± 6.3e-05,0.00132 ± 0.0002,0.00199 ± 0.00024
C58U G66C,< 1e-05,–,–,< 1e-05,< 1e-05,–,–
G29A A42G,0.00587 ± 0.0021,1120 ± 510,0.00025 ± 4.4e-05,0.000587 ± 0.00015,0.00227 ± 0.00083,0.00308 ± 0.0011,0.00757 ± 0.0021
A33G U65A C70G,4e-05 ± 6.6e-06,627 ± 310,< 1e-05,–,–,–,–
C8U G35A U45A U69G,1.02e-05 ± 2.7e-06,–,–,–,–,–,–
G32C C68U,1.25e-05 ± 1.1e-06,1350 ± 620,–,< 1e-05,–,–,–
A14G A48U,0.00132 ± 0.00027,2320 ± 780,3.34e-05 ± 1.3e-05,6.56e-05 ± 1.5e-05,0.000335 ± 5.6e-05,0.000889 ± 0.00016,0.000999 ± 0.00013
A14G A48G,0.000249 ± 3.2e-05,648 ± 220,–,3.64e-05 ± 1.4e-05,0.000128 ± 1.4e-05,0.000232 ± 2.6e-05,0.000203 ± 2.9e-05
A33C A48U,< 1e-05,–,< 1e-05,< 1e-05,–,–,–
G38C G66C C70U,1.23e-05 ± 9.7e-07,–,–,–,< 1e-05,–,–

Variant,kcat (glucosamine-6-phosphate [1]) [s⁻¹],KM (glucosamine-6-phosphate [2]) [µM],self-cleavage kobs at 40 uM GlcN6P (glucosamine-6-phosphate [3]) [s⁻¹],self-cleavage kobs at 160 uM GlcN6P (glucosamine-6-phosphate [4]) [s⁻¹],self-cleavage kobs at 640 uM GlcN6P (glucosamine-6-phosphate [5]) [s⁻¹],self-cleavage kobs at 2500 uM GlcN6P (glucosamine-6-phosphate [6]) [s⁻¹],self-cleavage kobs at 10000 uM GlcN6P (glucosamine-6-phosphate [7]) [s⁻¹]
G37A G38U,< 1e-05,–,–,< 1e-05,–,–,–
A42G U49A,1.03e-05 ± 2.5e-06,–,–,–,–,–,–
G13A A14G,0.00208 ± 0.00043,3430 ± 1000,3.73e-05 ± 1.1e-05,7.81e-05 ± 1.4e-05,0.000393 ± 6.9e-05,0.000888 ± 0.00012,0.00151 ± 0.00023
A48C A53C,9.8e-05 ± 1.5e-05,4010 ± 1400,–,–,–,3.99e-05 ± 1.2e-05,6.89e-05 ± 1.7e-05
C68A C70U,1.14e-05 ± 4.1e-06,–,–,–,–,–,–
C16U A42U,0.000129 ± 1e-05,903 ± 300,–,–,4.79e-05 ± 1.9e-05,0.000107 ± 2.2e-05,0.000115 ± 1.7e-05
U31G G43A,1.25e-05 ± 3.3e-06,–,–,–,–,–,–
C16G U30G,0.000352 ± 3e-05,4110 ± 700,–,–,4.35e-05 ± 1.3e-05,0.000146 ± 2.8e-05,0.000246 ± 3.2e-05
A14C U57C,5.66e-05 ± 5.7e-07,1390 ± 73,< 1e-05,–,–,3.68e-05 ± 1.3e-05,4.96e-05 ± 7.4e-06
C10U C68G,2.34e-05 ± 4.7e-06,–,–,–,–,2.5e-05 ± 7.6e-06,–
C16G U47A,0.00274 ± 0.00078,1710 ± 700,6.21e-05 ± 9.9e-06,0.00027 ± 3.9e-05,0.000755 ± 0.00013,0.00124 ± 0.0002,0.00329 ± 0.00047
G40A U56A,0.00543 ± 0.0016,3080 ± 1300,9.01e-05 ± 2.5e-05,0.000256 ± 5.7e-05,0.00103 ± 0.00021,0.00192 ± 0.00042,0.00516 ± 0.0011
G40A U56C,0.000181 ± 2.6e-05,2280 ± 720,–,–,4.68e-05 ± 8.5e-06,8.42e-05 ± 1.1e-05,0.000157 ± 1.9e-05
A39U A64C,0.000269 ± 4.6e-05,3410 ± 1100,–,–,5.07e-05 ± 7e-06,9.58e-05 ± 1.3e-05,0.00021 ± 1.9e-05
C50A,2.67e-05 ± 8.3e-07,579 ± 130,–,–,1.25e-05 ± 3.1e-06,2.31e-05 ± 2.1e-06,2.49e-05 ± 1.3e-06
C16U G41C,0.000304 ± 4.3e-05,1030 ± 370,–,2.95e-05 ± 1.4e-05,0.000139 ± 3.6e-05,0.000244 ± 3.8e-05,0.000246 ± 4.5e-05
U55G,0.0523 ± 0.0043,2390 ± 240,0.000889 ± 2.1e-05,0.00312 ± 0.00021,0.0103 ± 0.00037,0.0271 ± 0.0015,0.0436 ± 0.0021
